From the DeepSol protein solubility set

experiment: soluble on expression in E. coli; label from the status in PepcDB or PDB records

Sequence | soluble on expression in E. coli
MAKNDFKFISYKDKVKKELDATAERGMTKVLMIIKAAAKSGAPVETGQLRDRIDYQLKAVGGKVVGIVGSPEQYAIYVEFGTGEFAENGSGRKGGWFFEGPDGEWHFTRGQKPQKFLRNAFRQNKEKVIEILGKEYGATFKGG | not soluble
MSLTSEEERAEQAMAAISQIEPTRRLFVWTLTHGIVEYGSARAPAQHNTVSPQAAIEWVVRRGEPGIFIFKDLHPFIDLAPVKRWLRDAVAGFKGTDKVLVLMSPIQQIPTELEKEVVVVEFPLPGPGELNELLNVHLSQAPDKLRILSDAGREKMVKAALGLTKDEADKVYRKAEVVSGRLTEAEVDIVLSEKKQIIKRNGILEYLEFDDEGHHHHHH | not soluble
MTKKYLKVDVVSPLGSVFKGEADMVSLRGSAGEMGIAYGHTELLSTLPAGVVNVRKDQHTDVLYVSGGIVEVTPTRVTIMVDDMERAENLNQAEAEKARARAKEVLKNPDASKLDIEAANKRLKEADARLKALNSSNGLYYSKDD | not soluble
MTGSATRFGGSPGPVFALEKGERVEQMKLFKTYKEQVELLGQRGMQIDNSERAEKLLAQLNYYRLSGYWYPMRRFSPQNGIAQDEFVDGASFDLVVALYEFDERLRHSVFIELDRVELAIQTRLGHELGRLDPLIYLDPQRLGARASQRGKGERTVHEVWIGKYQSALKASKEDFVAHHNSKYGGTLPIWAAVEVMDWGMLSYLYGMSPNIVRKRIAEPCGLTGPQLESWLKSLNILRNYAAHHARMFNRVYDIKPKLNNDPKLTPVANRMNRVFGQLSMIQYLHHQLGLSQADRLTRLFNTYPHNPIVPLSRTGAPENWQELALWVP | not soluble
MQAYTYTIIQRLDNLNQQRIDRALALMDSQSQQVFHLIPALLNYNHPVIPGYYDADVPFGVHGLELNPIQQQFIDDIQLAIGQPLKTAEKPAILGLYTMGSTSSIGQSTSSDLDIWVCISPEMDCDERELLTNKCLLITDWAQSQGVEANFFLMDEERFRSNHSEEMTGDNCGSSQHLLLLDEFYRSAVRIAGQRLLWQIVPPEMEECYDEYVSQLCSDGYIDCSEWIDFGKLNRIPAEEYFGSNLWQLYKSIDSPYKSVLKAILLEAYSWEYPHTQLLSIDTKRRFFAHEPDLYGMDAYYLMLEKVTRYLERIQDDTRLDLVRRCFYLKTHEKLSREPDVGSVAWRREALSDMIAKWNWDDSVVAELDDRRNWKVEQVKVVHHALLDALMQSYRNLIQFARRNDITSAISPQDISILARKLYAAFEVLPGKVTLLNPQISPDLHEADLSFIEVKEGGVNKSGWYLYKQPLIAHRILGQPCLEHHEYLSKLVSWAFFNGLITESTRLHAVVREAQLDIDKFYQMVSDLRNTFALRKRRPTMQALASPCEISQLAMFINFENDPTSELSGRSLKVDVKNTDIFSFGPEHKNLVGSVDLVYRNSWHEVRTLHFKGETAMLDALKTILGKMHQDALPPESVDVFCYAKNMRGVMRNMVYQLLAECIDLRLKPVEQEKRRRFKAMRLGNQTYGLFFERRGVSVQKLENSIDFYRSISTNKLKGSPLLMLDREQEYQLPEAVDGFASEGLVQFFFEDNEDGFNIYVLDESNQVEVYHQFSGSKDEMIASVNSFYTSVKDDSRVASKFINFNLPQYYQIIHPEEGNAYIIPYRNDGCSP | not soluble
MSLFDPNDYKDEIRQIARDKANLELDLKGDIGWSLFPWLGLELHDTSIASAATPTKPFADLQMLGLSVRVLPLLRKDVQMSAIRVEGLSLDLVRDKQGKGNWENIGKPAQPQAPAAPSETPPAADGKGAQAQAPEQAPQNDSPRTPIKLDIDSLNVNNARVTYTDEASGKQYNVEGIELSTGAIREGSSIPLKLNAYLGTNQPVVRVKTELTGNLRFDTALRRYQLEDARLSGEASGEPLQGKTATFSAQGQLLLDQSAQIAEWNGLKLSVNQLRALGELKARELDKDTKFSGGLSIAPMNLREFLAGIGVTLPAMADANTLGKFELNTRLAGSRNSLNLEDLKLGLDDTAFSGRFGIADFARQSLRAQLKGDKLDLDRYLPAKAKQAQDAASATRKAEVDATVASAAQGNTPLPEKPTRQAWSDAPLLPIATLRKLDLDVALNFGRLTVEKLPIDDASLKLRGQGGVISLDDMRGGLYNGRFNAKANLDVRQDSAVLTATKHIANVPVERLLEAQGKKPPVKGLLDLDADIRTSGNSEKSWIDHLNGNARFSLINGVLPDANLEQQLCQGIATLNRKALAGTHGGKDTPFRELKGSLNFTNGVASNPDLKVAIPGLAVSGHGDIDLRVLGMDYRIGVEIQGDKSDMPDPACQVNQRYAGIEWPLLCRGPLELGAKACRLDKEGMGKVAAKLAGNRLNEKLEEKLGDKVSPELKDALKGLFNRKEGHHHHHH | soluble
GHHHHHHHHHHSSGHIEGRHMKRMIALDGAQGEGGGQILRSALSLSMITGQPFTITSIRAGRAKPGLLRQHLTAVKAATEICGATVEGAELGSQRLLFRPGTVRGGDYRFAIGSAGSCTLVLQTVLPALWFADGPSRVEVSGGTDNPSAPPADFIRRVLEPLLAKIGIHQQTTLLRHGFYPAGGGVVATEVSPVASFNTLQLGERGNIVQMRGEVLLAGVPRHVAEREIATLAGSFSLHEQNIHNLPRDQGPGNTVSLEVESENITERFFVVGEKRVSAEVVAAQLVKEVKRYLASTAAVGEYLADQLVLPMALAGAGEFTVAHPSCHLLTNIAVVERFLPVRFSLIETDGVTRVSIE | soluble
MAHHHHHHMNKNFAQILEDFISDGSRKHRGHGDDGANEENVPHFINQDGSNLFNDDIGKKFEKKNFFKYTEYSLSSLYMSDNQIPLEEDPKFETFINVITKASDVNNEYKWVDDYFKFEVKEEMNILTPRSQDRDFLFRKYLQPNQLKNICLLRKYEQAAISKTPEKNKVDAKIVSEYIVHDSYRQIMKALNFKWSHRIFTKARIFHSKYGNSDHIVILVMRHYKDENFLHPLFHDRALVQIKSYLNDNKHADMTQKNLLNYTEVFKPYVSLRKVDSNFVEQIKDRYYGAF | soluble
MGSDKIHHHHHHMTRVLKVDPLFPDEKVLKEAAELLRNGEVIIFPTETVYGIGADAYNEEACKKIFKLKERPADNPLIVHIHSFKQLEEIAEGYEPHLDFLKKFWPGPLTVIFRKKSEKIPPVVTADLPTVAVRMPAHPVALKLIELFGHPIAAPSANISGRPSATNVKHVIEDFMGKVKLIIDAGDTPFGLESTIVDLTKEKPVLLRPGPVEVERLKELFPELVVPDFVRKGNFKGRPLAPGMKYRHYAPLKPLILVEDLTKMEEVLKKYPDHVVICVEERKELYDDRIVVGSLKNPYSIAQNIFSALREAEKMGKEYIIVEGFEERGILFAVMNRLRKAATEIVR | not soluble
EEPTIGDIYNGKVTSIMQFGCFVQLEGLRKRWEGLVHISELRREGRVANVADVVSKGQRVKVKVLSFTGTKTSLSMKDVDQETGEDLNPNRRRNLV | soluble
MGSDKIHHHHHHMIRFHIQADSDIPASTQLYNQIHFAIASRQYPPGHKLPSTRQLAMQTGLHRNTISKVYRLLEEDGVVEAQAGSGIYVRGGNDPRETAKSQRLRKQYPDIDQQIRDHIDTLLQQGCSLAEIRELFLAEVDWRLRCSASVLVTAPLQDLGAAELMYRELSQALGVPVEVVPLEELGAILKQKDSGTVVTSHYFFQDAEAITASLGARTIALDLYDYREELSFLSQQKEGSCIGIVSISPGILRAAEIIIHSLRGEALLIMSCQPNDQTKLEAMLRSASVIICDQSSIDNVKQRVSAIRDDLIRLPRLLCSKSYISEASIALLKRELGLN | not soluble
DVKVQGCVEDADLLIVGFGGTYGHLYSAMEEMNHAGKKVALAHFVHLNPLPHNTAEVLKKYKKVVVAEQNLGQFAGYLRMKVDGFVPYQFNEVKGQPFVVSELVDAFTEILNK | not soluble
MLSSLRRVVPSLPRGSRSLTSQQIFDREKKFGCHNYKPLPVALSKGEGCFVWDVEGKKYFDFLAAYSAVNQGHCHPKLLKVVQEQASTLTLTSRAFYNNVLGEYEEYVTKLFKYDKVLPMNTGVEACESAVKLARRWAYDVKGVKDNEAVVVFAENNFWGRSIAAISASTDPDSFARFGPFVPGFKTVPYNNLKAVEDAIKDKNVAAFMVEPIQGEAGVVLPDPGYLKGVSDLCKKYNVLFITDEVQSGLGRSGKLLAHYHDNVRPDIVVLGKALSGGFYPVSAVLCDDNVMMNIKPGEHGSTYGGNPLACKVAIAALEILQEEKLVENSAVMGDLLMSKLKTLPKDIVSTVRGKGLFCAIVINKKYDAWKVCLKLKENGLLAKNTHGDIIRFAPPLCINKEQVEQAADIIIKTVTDFAKQN | not soluble
MNKAQIEIYYCRQCNWMLRSAWLSQELLHTFSEEIEYVALHPDTGGRFEIFCNGVQIWERKQEGGFPEAKVLKQRVRDLIDPERDLGHVDRPSSTQSLEHHHHHH | soluble
MDVVFPKMPHHQTVTNVRVPSSRGSAISRAHSEHRRSIDRSEPRHHHRHHVHSETPELPYTRGISKTPSVREYNVKREGQRSPSRSHRSERSPSEVRIPVTTTHTRPIAKRQSPEELDYGRFADKSQQNRFPGDHQAREEDLPYTRGISKTPSNQDSRSERTPCSDIHIPYNNPEKERAYQQSERSSYRSHKSVTPSEKSLPRNSETPELHYTRGISKTPSDRVEKSRYLSRGVSTPHTPSEVHIPYNNPEKERAYQQSHRPSSPKRRPSGRTNSPNKSSSSSKARPSAAPLEEIVHIKERYERDETIRRFFPTTTAV | not soluble
MSLDGGNSLFQLRKELYSTDNKLSSIDDDLSDRNTTEDLIMLPSSANSNFSSPYTSNNKYGNTKILTETEKYSVTKLSTDLSFLPGSNGNNNTIDTHHFEGLVDTALQKALVNDLDHIYIWNYNSIQKDTPICKISLHDDYSVLSSPPICLFTSSISSTNNDTANYNNNASGNINSGKFNNGICIINKKNSQFLYFEDISTINNLYTKLSKSKAHVLDLKLKDNENITSTINCEPSGIIIATSLGRVLFITIKDSTGKPKLELKQQLIKPQNSFFFRNLDSSKEIISLKKGPIVGKGERLLYITTRGGSLQIWQLSINSKSFKRLEINIYEHVLDSLQDLYPFAHGTLAFLDSHPIYSDTSSAHLTLASISNGNEIYYLMITVILDEKTNSFQIFSIYKLNTYFTKSTVDLNHKPQLFIPNALDSIVSPTLSVYVLFNNAVVMTQISSKLDSSFPLRRKWEDIIRFNKDVEIIGSGYSTDSIYVICKDMGVLKIASHSNNNQELELVSFVKSHIDQAVYFSTITSNEGHHHHHH | soluble
MAHHHHHHMTGVASLHRESERSKRKSSGGERNADEADTEGTAGARNAHAKQKQKTVRQGVAVCVWCCGCLPALTARKQNKRERNVCSAPQALVARPHVTAPSARRSSRPLLMRAAGEAHRAVVMSVSVGVRVEQLGGKHTAPLTGRVQKKQLKEGRVEKKRTSTVIAPESKKEKGW | not soluble
